Data on 37 molecules can be found in patent US20260242478A1 (published 2026).

Test [1] deals with T1, Anti-CD28 Fab (SEQ ID NOs: 696, 697).
T1 construct: Biotinylated and captured on neutravidin coated plates in the phage ELISA
Kind of test: phage ELISA on captured anti-CD28 Fab; competitor CD28 antigen pre-incubated in the wells. (In general: In an ELISA, binding on a coated surface is turned into a signal by an enzyme label.)
T1 sequence (VH, as listed by the source, chain 1 of 2): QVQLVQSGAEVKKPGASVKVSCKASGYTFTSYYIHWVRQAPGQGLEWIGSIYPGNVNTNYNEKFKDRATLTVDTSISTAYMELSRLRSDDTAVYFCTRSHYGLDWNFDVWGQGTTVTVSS
T1 sequence (VL, as listed by the source, chain 2 of 2): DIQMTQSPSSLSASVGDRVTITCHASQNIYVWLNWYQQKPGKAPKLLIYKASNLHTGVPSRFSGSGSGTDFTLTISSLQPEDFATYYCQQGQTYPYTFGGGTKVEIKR
Procedure: (§1) After panning, phage infected bacteria were plated out and colonies picked into 96 well blocks. Clonal phage was then amplified and separated from bacterial cells via centrifugation.
(§2) Clonal phage were harvested as crude supematants and screened via standard ELISAs. […] Prior to the addition of clonal phage, wells were incubated with blocking buffer and CD28 antigen or blocking buffer alone. Without washing or aspirating, clonal phage supematants were then added to the wells and incubated for a short time. Wells were then washed followed by detection of bound phage using a horse radish conjugated anti-M13 antibody. Clonal phage of interest were then sent for sequence analysis.

For test [2] the target is unchanged. Briefly: phage ELISA; biotinylated anti-CD28 Fab on neutravidin plate, clonal phage supernatant, anti-M13 HRP.
Target sequence in this assay (VH, as listed by the source, chain 1 of 2): as the sequence (VH, as listed by the source, chain 1 of 2) above
Target sequence in this assay (VL, as listed by the source, chain 2 of 2): as the sequence (VL, as listed by the source, chain 2 of 2) above
Test [3] addresses T2, anti-CD28 Fab (SEQ ID NOs: 696, 697).
T2 construct: In the phage ELISA the Fab was biotinylated and captured on neutravidin coated plates
Kind of test: phage ELISA; biotinylated anti-CD28 Fab on neutravidin plate, clonal phage supernatant, anti-M13 HRP detection.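 Note: crude supernatants of single phage clones picked after panning were screened for binding.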

The target is the same in test [4]. Kind of test: phage ELISA; biotinylated anti-CD28 Fab on neutravidin plate, wells pre-incubated with CD28 antigen as competitor, anti-M13 HRP detection.
Procedure: as §1, §2
Test [5] concerns the target Anti-CD28 Fab (SEQ ID NOs: 696, 697). Kind of test: phage binding ELISA on captured anti-CD28 Fab pre-incubated with CD28 antigen as competitor.
Target sequence in this assay (VH, as listed by the source, chain 1 of 2): as the sequence (VH, as listed by the source, chain 1 of 2) above
Target sequence in this assay (VL, as listed by the source, chain 2 of 2): as the sequence (VL, as listed by the source, chain 2 of 2) above
Procedure: as §1, §2
For test [6] the target is unchanged. Briefly: phage binding ELISA; biotinylated anti-CD28 Fab captured on neutravidin plate, clonal phage supernatant, anti-M13 HRP detection.
Target sequence in this assay (VH, as listed by the source, chain 1 of 2): as the sequence (VH, as listed by the source, chain 1 of 2) above
Target sequence in this assay (VL, as listed by the source, chain 2 of 2): as the sequence (VL, as listed by the source, chain 2 of 2) above
Procedure: as §1, §2

Where no end group is shown, it is not given here.

T2 sequence (VH, as listed by the source, chain 1 of 2): as the sequence (VH, as listed by the source, chain 1 of 2) above
T2 sequence (VL, as listed by the source, chain 2 of 2): as the sequence (VL, as listed by the source, chain 2 of 2) above

B1: Phage-514 (peptide)
peptide: YCEGHLPEYMWKCL
notes: tested as crude clonal phage supernatant
As to B1, the “Phage binding ELISA, Anti-CD28 Fab signal in the presence of CD28” value in test [1] amounted to 0.08. Besides, the “Phage binding ELISA, Anti-CD28 Fab signal” value in test [2] came out at 2.39.

B2: Phage-522 (peptide)
peptide: YCDGHSWEYIGKCL
notes: as for B1
Turning to B2, the “Phage binding ELISA, Anti-CD28 Fab signal in the presence of CD28” value in test [1] is 0.07. Further, the “Phage binding ELISA, Anti-CD28 Fab signal” value in test [2] was determined as 2.37.

B3: Phage-517 (peptide)
peptide: YCAGHMPEYMAKCL
notes: as for B1
Take B3: in test [1], the “Phage binding ELISA, Anti-CD28 Fab signal in the presence of CD28” value stood at 0.11. Further, in test [2], the “Phage binding ELISA, Anti-CD28 Fab signal” value amounted to 2.38.

B4: Phage-515 (peptide)
peptide: YCEGHAAEYMAKCL
notes: as for B1
B4: the “Phage binding ELISA, Anti-CD28 Fab signal in the presence of CD28” value in test [1] was found to be 0.08. The “Phage binding ELISA, Anti-CD28 Fab signal” value in test [2] was found to be 2.38.

B5: Phage-516 (peptide)
peptide: YCDGHLPEYLAKCL
notes: as for B1
As for B5, the “Phage binding ELISA, Anti-CD28 Fab signal in the presence of CD28” value in test [1] is 0.11. Further, the “Phage binding ELISA, Anti-CD28 Fab signal” value in test [2] worked out at 2.38.

B6: Phage-521 (peptide)
peptide: YCDGHLPEYMAKCL
notes: as for B1
For B6, in test [1], the “Phage binding ELISA, Anti-CD28 Fab signal in the presence of CD28” value came to 0.13. Also, the “Phage binding ELISA, Anti-CD28 Fab signal” value in test [2] came out at 2.37.
As for DCPWLSGFSRPLLC (also called Peptide-93) [Phage-472], in test [3], the “Phage binding ELISA, Anti-CD28 Fab (SEQ ID NOs: 696, 697) signal” value was found to be 1.27. Further, the “Phage binding ELISA, Anti-CD28 Fab signal in the presence of CD28” value in test [4] was determined as 0.07.

B7: Phage-502 (peptide, not shown: large carriers)
peptide: YCDGHSPEYMWKCL
notes: Clonal phage supernatant of the Peptide-87 optimisation library
Take B7: the “Anti-CD28 Fab signal in the presence of CD28 (phage binding ELISA)” value in test [5] was found to be 0.09. Also, the “Anti-CD28 Fab signal (phage binding ELISA)” value in test [6] came out at 2.44.

B8: Phage-511 (peptide, not shown: large carriers)
peptide: YCDGHLPQYMAQCL
modifications: cysteine pairing not given here; also: displayed on phage as fusion to pIII, linker, pIII sequence and order not given here
notes: as for B7
In the case of B8, in test [5], the “Anti-CD28 Fab signal in the presence of CD28 (phage binding ELISA)” value stood at 0.2. For the same molecule, the “Anti-CD28 Fab signal (phage binding ELISA)” value in test [6] is 2.4.

B9: Phage-503 (peptide, not shown: large carriers)
peptide: YCDGHLPEYMEKCL
notes: as for B7
As for B9, in test [5], the “Anti-CD28 Fab signal in the presence of CD28 (phage binding ELISA)” value worked out at 0.1. The “Anti-CD28 Fab signal (phage binding ELISA)” value in test [6] is 2.44.

B10: Phage-505 (peptide, not shown: large carriers)
peptide: YCDGHLPEYMNKCL
notes: as for B7
Take B10: the “Anti-CD28 Fab signal in the presence of CD28 (phage binding ELISA)” value in test [5] amounted to 0.13. Moreover, in test [6], the “Anti-CD28 Fab signal (phage binding ELISA)” value amounted to 2.43.

B11: Phage-500 (peptide, not shown: large carriers)
peptide: YCDGHLPQYMEKCL
notes: as for B7
Consider B11, for which, in test [5], the “Anti-CD28 Fab signal in the presence of CD28 (phage binding ELISA)” value turned out to be 0.11. Besides, the “Anti-CD28 Fab signal (phage binding ELISA)” value in test [6] worked out at 2.47.

B12: Phage-513 (peptide)
peptide: YCDGHAPEYMMKCL
notes: as for B1
With B12, the “Phage binding ELISA, Anti-CD28 Fab signal in the presence of CD28” value in test [1] came to 0.09. Besides, in test [2], the “Phage binding ELISA, Anti-CD28 Fab signal” value was determined as 2.39.

B13: Phage-507 (peptide, not shown: large carriers)
peptide: YCDGHSAEHMAKCL
notes: as for B7
As for B13, the “Anti-CD28 Fab signal in the presence of CD28 (phage binding ELISA)” value in test [5] worked out at 0.08. Moreover, the “Anti-CD28 Fab signal (phage binding ELISA)” value in test [6] worked out at 2.41.
Regarding YCEGHSPEYILKCL [Phage-478], the “Phage binding ELISA, Anti-CD28 Fab (SEQ ID NOs: 696, 697) signal” value in test [3] came out at 1.75. The “Phage binding ELISA, Anti-CD28 Fab signal in the presence of CD28” value in test [4] was 0.06.
The corresponding values for YCEGHRPEYILKCL [Phage-479] are 1.27 and 0.06.
Consider YCEGHLPEYIEKCL (also called Peptide-120) [Phage-481], for which, in test [3], the “Phage binding ELISA, Anti-CD28 Fab (SEQ ID NOs: 696, 697) signal” value stood at 2.06. The “Phage binding ELISA, Anti-CD28 Fab signal in the presence of CD28” value in test [4] was determined as 0.08.

B14: Phage-506 (peptide, not shown: large carriers)
peptide: YCAGHLPEYMDKCL
notes: as for B7
As to B14, in test [5], the “Anti-CD28 Fab signal in the presence of CD28 (phage binding ELISA)” value was 0.12. In addition, the “Anti-CD28 Fab signal (phage binding ELISA)” value in test [6] turned out to be 2.42.
In the case of YCEGHAPEYIAKCL [Phage-482], the “Phage binding ELISA, Anti-CD28 Fab (SEQ ID NOs: 696, 697) signal” value in test [3] is 2.15. Moreover, the “Phage binding ELISA, Anti-CD28 Fab signal in the presence of CD28” value in test [4] is 0.09.
In the same order, the values of YCEGHAPEYIWKCL [Phage-484] are 1.63 and 0.07.
The corresponding values for YCEGHAPEYIRKCL [Phage-483] are 1.63 and 0.08.
In the same order, the values of YCAGHTEEHYVKCM (also called Peptide-96) [Phage-475] are 0.62 and 0.07.

B15: Phage-519 (peptide)
peptide: YCEGHTAEYMQKCL
notes: as for B1
For B15, the “Phage binding ELISA, Anti-CD28 Fab signal in the presence of CD28” value in test [1] worked out at 0.08. Further, the “Phage binding ELISA, Anti-CD28 Fab signal” value in test [2] is 2.38.
Take YCAGHSHEYLAKCE (also called Peptide-98) [Phage-477]: the “Phage binding ELISA, Anti-CD28 Fab (SEQ ID NOs: 696, 697) signal” value in test [3] was determined as 0.86. Further, the “Phage binding ELISA, Anti-CD28 Fab signal in the presence of CD28” value in test [4] worked out at 0.06.

B16: Phage-508 (peptide, not shown: large carriers)
peptide: YCAGHLPQYMAKCL
notes: as for B7
With B16, the “Anti-CD28 Fab signal in the presence of CD28 (phage binding ELISA)” value in test [5] is 0.17. Besides, in test [6], the “Anti-CD28 Fab signal (phage binding ELISA)” value was determined as 2.41.
Take YCAGHMPQYEVKCL (also called Peptide-95) [Phage-474]: the “Phage binding ELISA, Anti-CD28 Fab (SEQ ID NOs: 696, 697) signal” value in test [3] is 0.22. Besides, the “Phage binding ELISA, Anti-CD28 Fab signal in the presence of CD28” value in test [4] is 0.06.
The corresponding values for YCAGMSTIQLWLKC (also called Peptide-94) [Phage-473] are 2.16 and 0.09.
Regarding YCMGHSHEHIWKCL (also called Peptide-97) [Phage-476], the “Phage binding ELISA, Anti-CD28 Fab (SEQ ID NOs: 696, 697) signal” value in test [3] worked out at 0.87. Also, the “Phage binding ELISA, Anti-CD28 Fab signal in the presence of CD28” value in test [4] amounted to 0.07.

B17: Phage-518 (peptide)
peptide: YCDGHLPEYMSKCM
notes: as for B1
With B17, in test [1], the “Phage binding ELISA, Anti-CD28 Fab signal in the presence of CD28” value was found to be 0.14. Also, in test [2], the “Phage binding ELISA, Anti-CD28 Fab signal” value was found to be 2.38.

B18: Phage-520 (peptide)
peptide: YCMGHAPEYMAKCL
notes: as for B1
As for B18, in test [1], the “Phage binding ELISA, Anti-CD28 Fab signal in the presence of CD28” value turned out to be 0.09. Moreover, in test [2], the “Phage binding ELISA, Anti-CD28 Fab signal” value was 2.38.
Consider YCEGHSQENIWKCL [Phage-485], for which the “Phage binding ELISA, Anti-CD28 Fab (SEQ ID NOs: 696, 697) signal” value in test [3] worked out at 1.41. For the same molecule, the “Phage binding ELISA, Anti-CD28 Fab signal in the presence of CD28” value in test [4] was determined as 0.07.
YCEGHEGIYFWKCL [Phage-480]: in test [3], the “Phage binding ELISA, Anti-CD28 Fab (SEQ ID NOs: 696, 697) signal” value worked out at 2.07. Further, the “Phage binding ELISA, Anti-CD28 Fab signal in the presence of CD28” value in test [4] worked out at 0.06.

B19: Phage-501 (peptide, not shown: large carriers)
peptide: YCAGHAPEYMEKCL
notes: as for B7
As to B19, the “Anti-CD28 Fab signal in the presence of CD28 (phage binding ELISA)” value in test [5] amounted to 0.09. Moreover, the “Anti-CD28 Fab signal (phage binding ELISA)” value in test [6] came out at 2.45.

B20: Phage-509 (peptide, not shown: large carriers)
peptide: YCEGHLPEYMAKCL
modifications: cysteine pairing not given here; also: displayed on phage as fusion to pIII, linker, pIII sequence and order not given here
notes: as for B7
Take B20: in test [5], the “Anti-CD28 Fab signal in the presence of CD28 (phage binding ELISA)” value stood at 0.14. Besides, in test [6], the “Anti-CD28 Fab signal (phage binding ELISA)” value came out at 2.41.

B21: Phage-510 (peptide, not shown: large carriers)
peptide: YCEGHLPEYMFKCL
modifications: cysteine pairing not given here; also: displayed on phage as fusion to pIII, linker, pIII sequence and order not given here
notes: as for B7
Take B21: the “Anti-CD28 Fab signal in the presence of CD28 (phage binding ELISA)” value in test [5] came out at 0.12. The “Anti-CD28 Fab signal (phage binding ELISA)” value in test [6] was 2.4.

B22: Phage-504 (peptide, not shown: large carriers)
peptide: YCEGHLPQYMWKCL
notes: as for B7
With B22, the “Anti-CD28 Fab signal in the presence of CD28 (phage binding ELISA)” value in test [5] was found to be 0.17. In addition, the “Anti-CD28 Fab signal (phage binding ELISA)” value in test [6] was determined as 2.44.

B23: Phage-512 (peptide, not shown: large carriers)
peptide: YCEGHLPQYMQKCL
modifications: cysteine pairing not given here; also: displayed on phage as fusion to pIII, linker, pIII sequence and order not given here
notes: as for B7
In the case of B23, the “Anti-CD28 Fab signal in the presence of CD28 (phage binding ELISA)” value in test [5] was 0.12. Besides, the “Anti-CD28 Fab signal (phage binding ELISA)” value in test [6] was found to be 2.39.
